{"source": "patent US10227617B2", "about": "“Sequestration of carbon dioxide with hydrogen to useful products” (UNIVERSITY OF GEORGIA RESEARCH FOUNDATION, INC., priority 2012, dated 2019)", "origin": "cited, not measured here", "molecules": {"B1": {"name": "Msed_1456: M. sedula 3-hydroxypropionate:CoA ligase, SEQ ID NO:6 (protein, listed as Metallosphaera sedula)", "chain": "MFMRYIMVEEQTLKTGSQELEEKADYNMRYYAHLMKLSKEKPAEFWGSLAQDLLDWYEPWKETMRQEDPMTRWFIGGKINASYNAVDRHLNGPRKFKAAVIWESELGERKIVTYQDMFYEVNRWANALRSLGVGKGDRVTIYMPLTPEGIAAMLASARIGAIHSVIFAGFGSQAIADRVEDAKAKVVITADAYPRRGKVVELKKTVDEALNSLGERSPVQHVLVYRRMKTDVNMKEGRDVFFDEVGKYRYVEPERMDSNDPLFILYTSGTTGKPKGIMHSTGGYLTGTAVMLLWSYGLSQENDVLFNTSDIGWIVGHSYITYSPLIMGRTVVIYESAPDYPYPDKWAEIIERYRATTFGTSATALRYFMKYGDEYVKNHDLSSIRIIVTNGEVLNYSPWKWGLEVLGGGKVFMSHQWWQTETGAPNLGYLPGIIYMPMKSGPASGFPLPGNFVEVLDENGNPSAPRVRGYLVMRPPFPPNMMMGMWNDNGERLKKTYFSKFGSLYYPGDFAMVDEDGYIWVLGRADETLKIAAHRIGAGEVESAITSHPSVAEAAVIGVPDSVKGEEVHAFVVLKQGYAPSSELAKDIQSHVRKVMGPIVSPQIHFVDKLPKTRSGKVMRRVIKAVMMGSSAGDLTTIEDEASMDEIKKAVEELKKELKTS"}}, "settings": "reported data, FIG. 4; cited from earlier work"}
{"molecule": "B1", "values": [{"measurement": "activity on 3-hydroxybutyrate", "result": "> 1", "unit": "%"}]}
